Experimental data published in publication doi:10.1101/2022.05.18.492506, “A multi-domain connector links the outer membrane and cell wall in deep-branching bacteria” (bioRxiv, 2022).

B1: SlpA (Deinococcus radiodurans outer membrane protein) (natural protein, UniProt Q9RRB6 23-1167, looked up)
chain: APVSAPQVPALTDVPAGHWAKDAIDRLVSRGVILGYPDGTFRGTQNLTRYEAAIIIARLLDQMRDGETPAGMTAEDMTALQNAIQELAADLAALGVRVSDLEANAVSKDDFARLEARIEEVAAAGGEQGATEALQGQIDDLTARVDEYDALRADVDDNASSIAALNDLTVLLNQDILDLQDRVSAVEAAQADFVQRSDFDALGGRVTTVETRVETVNNSLTGRIAALERNAFSVKPSLTIGYSVSRTSRNFDVDRLFPLNADGTVANNAFTSGGIDTDTGAQRRDFGDFGNASDPVVAGAAGLYGFADGVSYTVYFTDGSTATFDGLNPADYKVPTGKVIDTTKGRNGFGFNNLARYKEGSTDIGISLGFDTSGQFSQVTSGTGGSLFSTAGRLQVNQIDLNFGLVTGLPSDAYVDTNGNGKKDDGEATGRGTYLGSGGTAAILRDPAGNVYRPVFFRFKNATTQFSVGNNPVIVTLGQQQKFYFSDYVFDNNYDGRGDGFTVTVDGSNVPVIGAWKPQIKGVYGSRSGLDGTAEAGYGVYYRGVRAQITPVGTLTAGIHYAQEGRDMFGAAQNTTSTPSDVTTYGADLHGKAFGVELHSEYATSRVRPNTANAAVQTSNAFYARVATRKDNLAFDLNTPAAKFGNDTFGVSLYDLNYRKIDAGYNNVAGISEYGYGSYSRTSAQNIAYNPDTGVTAPFANLDRQAYTDANNDGTSDRNADGTVVATNTKIGQMGFGVKAAANLGPVAIGGYYDTSTGANGDNANRMTEAGGSAKVAYSIFSLRGTYNTLDSNRPQIYRDAAGTQIIGDAKVRRYAVQADVTPGLGLFVGAYYRDVNVNGVRSTTDRGLLGRGYLASSFEPGVGNNAYRTGLRCADNNFGTGTRDIDGVGGVLNPAVNLDQSRTATCFTSYGVEAGHAGDNANALVKDLFFRVGYSRVYVPTTATATTGDFSGSVTYGDARYDRKVGVANVRLAGSFSTTNTQLDSRPAGTRGAVGLIVRTDPLENVPFRPQFNGQVGYYTADNRVAAGNYNANATKYGAGVVLNDFLLPQTKIGVRYDGYMAQNRQYTPFDGDGTQGYFSDANNNRRTNLNGVYVEGAYQDLIFSYGTYTLSQKDLNGVEYGSGINNGQPARGQTFKISYKVNF
notes: SlpA, Deinococcus radiodurans, UniProtKB Q9RRB6; Native protein from the source organism, no tags; Only residues 215-1167 are well resolved in the cryo-EM map; also called SlpA protein complex; SlpA porin; source: purified from D. radiodurans (ATCC BAA816): DDM extraction, HiTrap-Q, Superose 6 Increase
B2: uncharacterized protein DR_0644 (natural protein, Deinococcus radiodurans, UniProt Q9RWM2 20-206, looked up)
chain: GPTEGTYTLAPQAVVKPAGPVYAPAGTAKISETLGVTRTTITLTGMAPYAIYVAHYHKMGTAAPMGSAPATNTNMAMSSTDATATTTASTSTTSTDTTVAASTDMTTTVTMAPVTAAPNPCNSDGPAIMESRMIAQASADGKVTLTGIVPTALIRDAAYINVHHGRDFSGALADSGVICTPITMTMR
notes: uncharacterized protein DR_0644, Deinococcus radiodurans; the mature protein, fitted from the mature N-terminus Gly20 to the C-terminus Arg206, with an unstructured loop 82-133; Identified from the map density combined with structural modelling (rigid-body fit of an AlphaFold2 model); also called accessory protein; additional protein density; source: endogenous, D. radiodurans; present with the …

Legend:
[1] = molecular target: the molecule itself; test: cryo-EM structure; single-particle analysis of SlpA purified from D. radiodurans in detergent (20 mM HEPES/NaOH pH 7.5, 150 mM NaCl, 0.02 % DDM; 4.45 mg/mL); C3 symmetry; global resolution 3.25 Å
[2] = molecular target: B1; test: as above; conditions: both partners purified

| binding result [2] | Binder | stoichiometry N [1] |
| --- | --- | --- |
| – | B1 | 3 |
| binds | B2 | 3 |
